Patent US7662384B2, “Use of anti-α5β1 antibodies to inhibit cancer cell proliferation” (Facet Biotech Corporation, priority 2004, dated 2010)

Columns and labels:
[1] = target: T1, α5β1 integrin on the cell surface of HT1080 (Homo sapiens, UniProt P05556+P08648); assay: FACS analysis of cancer cell line with IIA1; format: binding; conditions: HT1080 (fibrosarcoma); IIA1 10 μg/ml; background MFI ~5
T1 construct: endogenous in cells
Method: (§1) Cells were removed with 5 mM EDTA in Tris-HCl (pH 8.0) and blocked by centrifugation in Hank's balanced salt solution containing 3% heat inactivated FBS, 1% normal goat serum (Sigma) and 1% BSA at 4° C. for 5 minutes. Cells were incubated for 30-60 minutes at 4° C. with the mouse anti-α5β1 antibody, IIA1 (10 μg/ml) in FACS buffer (PBS containing 0.1% BSA). Excess monoclonal antibody was removed by centrifugation and cells were washed two times with FACS buffer prior to resuspending in PE-anti-mouse IgG (H+ L) antibody (Southern Biotech, 1:400 dilution) for 30-60 minutes at 4° C. After washing cells were re-suspended in FACS buffer containing propidium iodide (1 μg/ml). Mean fluorescence intensity (MFI) was measured on a FACSCalibur (Becton Dickinson). Background MFI was ˜5.

[2] = target: T2, α5β1 integrin on the cell surface of SW839 (Homo sapiens, UniProt P05556+P08648); assay: FACS analysis of cancer cell line with IIA1; format: binding; conditions: SW839 (renal); IIA1 10 μg/ml; background MFI ~5
T2 construct: endogenous in cells
T2 sequence (P08648 42-894 limits assumed): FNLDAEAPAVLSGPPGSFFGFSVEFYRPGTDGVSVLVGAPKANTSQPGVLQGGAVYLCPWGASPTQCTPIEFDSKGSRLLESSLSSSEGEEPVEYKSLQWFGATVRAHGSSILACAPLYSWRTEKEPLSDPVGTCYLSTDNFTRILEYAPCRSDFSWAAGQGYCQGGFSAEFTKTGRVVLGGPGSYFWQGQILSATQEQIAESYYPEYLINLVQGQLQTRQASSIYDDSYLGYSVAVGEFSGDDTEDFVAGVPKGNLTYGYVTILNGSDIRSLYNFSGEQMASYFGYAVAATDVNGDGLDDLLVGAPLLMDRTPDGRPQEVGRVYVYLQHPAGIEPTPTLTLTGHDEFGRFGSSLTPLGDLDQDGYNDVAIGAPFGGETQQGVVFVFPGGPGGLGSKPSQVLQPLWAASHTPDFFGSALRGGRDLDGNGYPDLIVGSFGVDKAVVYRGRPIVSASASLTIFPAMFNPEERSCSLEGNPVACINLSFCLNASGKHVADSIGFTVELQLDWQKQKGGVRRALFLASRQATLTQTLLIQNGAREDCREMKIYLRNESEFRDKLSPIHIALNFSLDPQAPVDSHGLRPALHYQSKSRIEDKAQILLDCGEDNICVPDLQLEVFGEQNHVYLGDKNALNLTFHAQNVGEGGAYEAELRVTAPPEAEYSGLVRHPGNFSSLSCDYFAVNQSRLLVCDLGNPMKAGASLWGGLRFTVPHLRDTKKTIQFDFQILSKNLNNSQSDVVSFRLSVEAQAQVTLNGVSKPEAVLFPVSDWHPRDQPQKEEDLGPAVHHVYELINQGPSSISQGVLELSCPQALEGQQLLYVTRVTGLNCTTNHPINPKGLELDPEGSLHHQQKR
T2 sequence (P08648 895-1049 limits assumed): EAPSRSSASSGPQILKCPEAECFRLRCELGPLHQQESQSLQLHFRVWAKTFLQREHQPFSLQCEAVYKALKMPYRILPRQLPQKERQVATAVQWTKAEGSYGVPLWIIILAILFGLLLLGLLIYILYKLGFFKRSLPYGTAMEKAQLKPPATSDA
T2 sequence (P05556 21-798): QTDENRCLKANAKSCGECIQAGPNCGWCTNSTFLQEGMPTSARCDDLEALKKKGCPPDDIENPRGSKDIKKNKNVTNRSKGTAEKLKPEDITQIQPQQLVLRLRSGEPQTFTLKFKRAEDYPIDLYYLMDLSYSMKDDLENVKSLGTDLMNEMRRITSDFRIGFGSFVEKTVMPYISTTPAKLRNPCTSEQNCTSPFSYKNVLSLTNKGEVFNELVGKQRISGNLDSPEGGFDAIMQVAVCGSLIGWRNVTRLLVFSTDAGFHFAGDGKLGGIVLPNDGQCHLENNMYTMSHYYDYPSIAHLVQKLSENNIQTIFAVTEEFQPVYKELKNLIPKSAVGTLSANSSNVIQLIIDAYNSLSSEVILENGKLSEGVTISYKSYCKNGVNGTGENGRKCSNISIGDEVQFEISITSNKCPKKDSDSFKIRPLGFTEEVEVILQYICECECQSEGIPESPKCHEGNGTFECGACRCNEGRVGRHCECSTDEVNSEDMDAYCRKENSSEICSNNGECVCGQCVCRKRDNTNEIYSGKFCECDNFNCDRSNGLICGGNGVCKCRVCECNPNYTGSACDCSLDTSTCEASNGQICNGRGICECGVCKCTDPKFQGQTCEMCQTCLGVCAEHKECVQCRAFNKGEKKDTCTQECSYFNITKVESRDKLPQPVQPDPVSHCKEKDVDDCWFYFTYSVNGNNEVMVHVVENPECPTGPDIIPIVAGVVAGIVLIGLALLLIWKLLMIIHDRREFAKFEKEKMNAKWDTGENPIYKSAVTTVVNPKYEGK
Method: as §1

A2058 = assay: M200 in vitro cell proliferation assay; format: cell-based; conditions: A2058 (melanoma), 4-day assay
Method: (§2) Cancer cell lines were plated at a density of 2500 cells/well in 96-well plates in IMDM with supplements in the presence or absence of 10% FBS. At the time of plating, cells were challenged with various concentrations M200 or a non-function blocking anti-α5 antibody, VC5. Four days later, cell viability was assessed by the CellTiter 96 AQueous Non-Radioactive Cell Proliferation Assay (Promega) according to the manufacturer's instructions. All growth studies were done at least 3 times in triplicate.

A375 = assay: M200 in vitro cell proliferation assay; format: cell-based; conditions: A375 (melanoma), 4-day assay
Method: as §2

A498 = assay: M200 in vitro cell proliferation assay; format: cell-based; conditions: A498 (renal), 4-day assay
Method: as §2

A549 = assay: M200 in vitro cell proliferation assay; format: cell-based; conditions: A549 (lung), 4-day assay
Method: as §2

CAPAN-1 = assay: M200 in vitro cell proliferation assay; format: cell-based; conditions: CAPAN-1 (pancreas), 4-day assay
Method: as §2

CAPAN-2 = assay: M200 in vitro cell proliferation assay; format: cell-based; conditions: CAPAN-2 (pancreas), 4-day assay
Method: as §2

ES-2 = assay: M200 in vitro cell proliferation assay; format: cell-based; conditions: ES-2 (ovarian), 4-day assay
Method: as §2

H460 = assay: M200 in vitro cell proliferation assay; format: cell-based; conditions: H460 (lung), 4-day assay
Method: as §2

HT1080 = assay: M200 in vitro cell proliferation assay; format: cell-based; conditions: HT1080 (fibrosarcoma), 4-day assay
Method: as §2

HT1376 = assay: M200 in vitro cell proliferation assay; format: cell-based; conditions: HT1376 (bladder), 4-day assay
Method: as §2

SW1990 = assay: M200 in vitro cell proliferation assay; format: cell-based; conditions: 4-day assay
Method: as §2

TK-10 = assay: M200 in vitro cell proliferation assay; format: cell-based; conditions: TK-10 (renal), 4-day assay
Method: as §2

LOX = assay: M200 in vitro cell proliferation assay; format: cell-based; conditions: LOX (melanoma)
Method: as §2, with “Four days later, cell viability was assessed by the CellTiter 96 AQueous Non-Radioactive Cell Proliferation Assay (Promega) according to the manufacturer's instructions.” left out

NW231 = assay: M200 in vitro cell proliferation assay; format: cell-based, human; conditions: NW231 (breast)
Method: as §2, with “Four days later, cell viability was assessed by the CellTiter 96 AQueous Non-Radioactive Cell Proliferation Assay (Promega) according to the manufacturer's instructions.” left out

[3] = pharmacokinetic studies in cynomolgus monkeys; format: in vivo
[4] = target: α5β1 integrin found in rabbit (Oryctolagus cuniculus, UniProt A0A5F9C3C4+A0A5F9CXX2); assay: species cross-reactivity of anti-α5β1 antibody; format: binding
α5β1 integrin found in rabbit, sequence (A0A5F9CXX2 1-1041): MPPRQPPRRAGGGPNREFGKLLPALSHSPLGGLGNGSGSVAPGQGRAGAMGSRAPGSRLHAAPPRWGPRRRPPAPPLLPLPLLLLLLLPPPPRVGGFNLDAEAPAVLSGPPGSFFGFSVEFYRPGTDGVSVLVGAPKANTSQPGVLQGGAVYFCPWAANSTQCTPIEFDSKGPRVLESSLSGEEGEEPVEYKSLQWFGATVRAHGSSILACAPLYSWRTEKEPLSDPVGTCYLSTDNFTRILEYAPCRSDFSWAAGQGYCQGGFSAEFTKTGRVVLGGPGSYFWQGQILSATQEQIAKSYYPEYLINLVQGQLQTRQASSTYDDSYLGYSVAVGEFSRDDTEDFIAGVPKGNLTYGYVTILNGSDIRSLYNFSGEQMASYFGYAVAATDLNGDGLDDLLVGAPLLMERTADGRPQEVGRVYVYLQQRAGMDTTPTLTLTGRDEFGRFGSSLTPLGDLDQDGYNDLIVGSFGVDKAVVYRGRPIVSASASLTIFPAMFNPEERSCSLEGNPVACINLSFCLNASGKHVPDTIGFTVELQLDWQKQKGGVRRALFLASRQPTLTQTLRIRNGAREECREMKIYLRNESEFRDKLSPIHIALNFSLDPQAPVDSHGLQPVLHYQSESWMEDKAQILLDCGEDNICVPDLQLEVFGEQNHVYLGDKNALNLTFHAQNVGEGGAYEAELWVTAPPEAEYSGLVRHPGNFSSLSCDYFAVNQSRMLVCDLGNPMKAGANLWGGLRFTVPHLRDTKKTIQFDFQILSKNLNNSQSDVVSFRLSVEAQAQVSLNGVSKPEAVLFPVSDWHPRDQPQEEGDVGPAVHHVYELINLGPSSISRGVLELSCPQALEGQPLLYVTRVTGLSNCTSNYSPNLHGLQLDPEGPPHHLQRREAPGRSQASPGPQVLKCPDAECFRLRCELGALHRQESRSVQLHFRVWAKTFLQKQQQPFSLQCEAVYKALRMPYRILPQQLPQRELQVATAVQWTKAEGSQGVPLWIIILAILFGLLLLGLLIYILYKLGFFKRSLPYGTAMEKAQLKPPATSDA
α5β1 integrin found in rabbit, sequence (A0A5F9C3C4 21-798): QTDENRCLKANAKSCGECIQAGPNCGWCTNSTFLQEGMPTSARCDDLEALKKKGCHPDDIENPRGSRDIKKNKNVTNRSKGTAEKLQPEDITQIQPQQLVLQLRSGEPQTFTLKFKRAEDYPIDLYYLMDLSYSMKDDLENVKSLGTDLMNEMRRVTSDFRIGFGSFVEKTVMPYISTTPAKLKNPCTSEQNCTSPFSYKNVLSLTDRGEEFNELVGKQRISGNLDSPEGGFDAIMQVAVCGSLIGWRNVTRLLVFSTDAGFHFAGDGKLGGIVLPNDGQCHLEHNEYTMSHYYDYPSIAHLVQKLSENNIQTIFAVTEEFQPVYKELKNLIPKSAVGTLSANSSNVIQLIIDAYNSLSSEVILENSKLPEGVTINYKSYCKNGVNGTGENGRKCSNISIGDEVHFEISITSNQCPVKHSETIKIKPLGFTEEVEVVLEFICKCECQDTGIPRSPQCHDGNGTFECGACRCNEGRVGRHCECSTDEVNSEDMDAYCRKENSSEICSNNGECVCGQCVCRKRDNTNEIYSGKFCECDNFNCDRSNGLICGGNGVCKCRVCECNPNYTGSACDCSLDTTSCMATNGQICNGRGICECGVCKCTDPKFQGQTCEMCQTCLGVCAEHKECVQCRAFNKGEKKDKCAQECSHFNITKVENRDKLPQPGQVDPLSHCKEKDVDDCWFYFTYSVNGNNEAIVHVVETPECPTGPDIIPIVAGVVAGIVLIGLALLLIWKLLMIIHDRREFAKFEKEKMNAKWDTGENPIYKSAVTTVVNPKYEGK

[5] = Phase I dose-escalation study: safety / adverse events; format: in vivo, human
Method: The dosing levels and schedule used in the study were as follows. M200 was administered to the 21 patients on days 1, 15, 22, 29, and 36. The dosing levels and numbers of patients per level were: 0.5 mg/kg (1 patient), 1.0 mg/kg (2 patient), 2.5 mg/kg (3 patients), 5.0 mg/kg (3 patients), 10.0 mg/kg (6 patients) and 15 mg/kg (6 patients). The dose was administered as an intravenous infusion over 1 hour. The first and second doses were separated by a two week period to allow sampling for single-dose pharmacokinetic data. The real-time PK measurements performed following the first dose were used to predict each patient's peak serum concentration following the fifth dose. If the predicted peak serum concentration following the fifth dose was <750 μg/mL, the patient received all 5 doses of M200. The remaining 3 doses were given weekly and followed by a 45-day evaluation period.
Adverse events were graded using the National Cancer Institute (NCI) Common Terminology Criteria for Adverse Events (CTCAE), version 3.0. Dose-limiting toxicity was defined as any Grade-3 or Grade-4 adverse event, excluding scheduled hospitalizations or elective surgeries. Grade-3 or Grade-4 adverse events thought to be unrelated to M200 were excluded where appropriate following a review with the medical monitor and regulatory agencies.

[6] = minimum effective in vitro concentration
[7] = absence of serum, 2-day rather than 4-day assay

T1 sequence (P08648 42-894 limits assumed): as the sequence (P08648 42-894 limits assumed) above
T1 sequence (P08648 895-1049 limits assumed): as the sequence (P08648 895-1049 limits assumed) above
T1 sequence (P05556 21-798): as the sequence (P05556 21-798) above

B1: IIA1: parent mouse IgG1 class anti-α5β1 antibody shown to inhibit α5β1 integrin binding to fibronectin (antibody, V domains shown)
VH: MAVLGLLLCLVTFPSCVLSQVQLKESGPGLVAPSQSLSITCTISGFSLTDYGVHWVRQPPGKGLEWLVVIWSDGSSTYNSALKSRMTIRKDNSKSQVFLIMNSLQTDDSAMYYCARHGTYYGMTTTGDALDYWGQGTSVTVSS
VL: MDFQVQIFSFLLISASVIMSRGQIVLTQSPAIMSASLGERVTMTCTASSSVSSNYLHWYQQKPGSAPNLWIYSTSNLASGVPARFSGSGSGTSYSLTISSMEAEDAATYYCHQYLRSPPTFGGGTKLEIK
modifications: mus muscalus
- α5β1 Surface Expression (MFI) [1]: 421.7 MFI
- α5β1 Surface Expression (MFI) [2]: 65.8 MFI

B2: M200: chimeric IgG4 anti-α5β1 antibody derived from IIA1; generic name volociximab (antibody, V domains shown)
VH: B1 VH
VL: MDFQVQIFSFLLISASVIMSRGQIVLTQSPAIMSASLGERVTMTCTASSSVSSNYLHWYQQKPGSAPNLWIYSTSNLASGVPARFSGSGSGTSYSLTISSMEAEDAATYYCHQYLRSPPTFGGGTKLEIKDMSVDMSV
modifications: chimeric antibody
notes: chimeric IgG4 anti-α5β1 antibody derived from IIA1; generic name volociximab
- % Growth Inhibition +Serum (A2058; 10% FBS): 0%
- % Growth Inhibition −Serum (A2058; absence of serum): 0%
- % Growth Inhibition +Serum (A375; 10% FBS): 0%
- % Growth Inhibition −Serum (A375; absence of serum): 5%
- % Growth Inhibition +Serum (A498; 10% FBS): 0%
- % Growth Inhibition −Serum (A498; absence of serum): 5%
- % Growth Inhibition +Serum (A549; 10% FBS): 0%
- % Growth Inhibition −Serum (A549; absence of serum): 40%
- % Growth Inhibition +Serum (CAPAN-1; 10% FBS): 0%
- % Growth Inhibition −Serum (CAPAN-1; absence of serum): 0%
- % Growth Inhibition +Serum (CAPAN-2; 10% FBS): 0%
- % Growth Inhibition −Serum (CAPAN-2; absence of serum): 0%
- % Growth Inhibition +Serum (ES-2; 10% FBS): 0%
- % Growth Inhibition −Serum (ES-2; absence of serum): 0%
- % Growth Inhibition +Serum (H460; 10% FBS): 0%
- % Growth Inhibition −Serum (H460; absence of serum): 40%
- % Growth Inhibition +Serum (HT1080; 10% FBS): 0%
- % Growth Inhibition −Serum (HT1080; absence of serum): 0%
- % Growth Inhibition +Serum (HT1376; 10% FBS): 0%
- % Growth Inhibition −Serum (HT1376; absence of serum): 0%
- % Growth Inhibition +Serum (SW1990; 10% FBS): 0%
- % Growth Inhibition −Serum (SW1990; absence of serum): 10%
- % Growth Inhibition +Serum (TK-10; 10% FBS): 0%
- % Growth Inhibition −Serum (TK-10; absence of serum): 0%
- % Growth Inhibition +Serum (LOX; 10% FBS, 4-day assay): 35%
- % Growth Inhibition −Serum (LOX; [7]): 40^2%
- % Growth Inhibition +Serum (NW231; 10% FBS, 4-day assay): 35%
- % Growth Inhibition −Serum (NW231; [7]): 10^2%
- mean peak level (serum) ([3]; 50 mg/kg after 4 weekly doses): 1862 µg/mL
- range of peak level (serum) ([3]; 50 mg/kg after 4 weekly doses): 1000 to 2606 µg/mL
- toxicity ([3]; at peak serum concentrations after 50 mg/kg, 4 weekly doses): no toxicity
- recognition of α5β1 integrin found in rabbit [4]: does recognize
- dose-limiting toxicities ([5]; doses up to 15 mg/kg): no dose-limiting M200 toxicities were observed
- tolerability in patients ([5]; doses up to 15 mg/kg): well tolerated
- adverse events, intensity ([5]; fatigue, nausea, constipation, headache and anorexia): generally mild to moderate in intensity
- infusion reaction ([5]; the one patient who received 0.5 mg/kg): fever after the first dose
- minimum effective in vitro concentration [6]: 2 to 3 µg/mL
